In patent publication US20200216495A1 (ADRX, published 2020):
Where “and” joins values, the source holds several entries; their conditions need not be identical. Equal values may be shown once. Square brackets hold non-standard residues; d marks the D form. Ends that are not written are not given here.

Biological target: Tau40 P301L protein (human)
Assay: cell-based or functional assay

Binder: [dK][dL][dK][dL][dK][dW] [klklkw]
- IC50, Tau40 assay (ThT): 2.97 µM

Binder: [dW][dR][dI][dR][dI][dR][dW] [wririrw]
- IC50, Tau40 assay (ThT): 3 µM

Binder: [dW][dR][dL][dR][dI][dW][dW] [wrlriww]
- IC50, Tau40 assay (ThT): 3.06 µM

Binder: [dF][dK][dI][dR][dI][dK][dW][dH] [fkirikwh]
- IC50, Tau40 assay (ThT): 3.06 µM and 5.46 µM

Binder: [dE][dR][dL][dK][dV][dR][dW] [erlkvrw]
- IC50, Tau40 assay (ThT): 3.07 µM

Binder: [dF][dE][dL][dH][dI][dK][dW][dH] [felhikwh]
- IC50, Tau40 assay (ThT): 3.11 µM

Binder: [dW][dR][dL][dD][dV][dR][dW] [wrldvrw]
- IC50, Tau40 assay (ThT): 3.13 µM

Binder: [dL][dK][dI][dR][dI][dH][dR][dH] [lkirihrh]
- IC50, Tau40 assay (ThT): 3.16 µM

Binder: [dL][dK][dI][dW][dI][dW][dY][dH] [lkiwiwyh]
- IC50, Tau40 assay (ThT): 3.19 µM

Binder: [dF][dH][dI][dR][dL][dR][dH][dH] [fhirlrhh]
- IC50, Tau40 assay (ThT): 3.21 µM and 4.3 µM

Binder: [dL][dK][dI][dR][dR][dH][dY][dH] [lkirrhyh]
- IC50, Tau40 assay (ThT): 3.21 µM

Binder: [dA][dR][dL][dK][dV][dR][dW] [arlkvrw]
- IC50, Tau40 assay (ThT): 3.23 µM

Binder: [dW][dR][dA][dK][dV][dR][dW] [wrakvrw]
- IC50, Tau40 assay (ThT): 3.23 µM

Binder: [dW][dR][dL][dK][dA][dR][dW] [wrlkarw]
- IC50, Tau40 assay (ThT): 3.23 µM

Binder: [dW][dA][dL][dR][dI][dH][dW] [walrihw]
- IC50, Tau40 assay (ThT): 3.23 µM

Binder: [dW][dR][dL][dR][dA][dH][dW] [wrlrahw]
- IC50, Tau40 assay (ThT): 3.23 µM

Binder: [dW][dR][dL][dR][dI][dH][dA] [wrlriha]
- IC50, Tau40 assay (ThT): 3.23 µM

Binder: [dW][dR][dL][dE][dI][dH][dW] [wrleihw]
- IC50, Tau40 assay (ThT): 3.23 µM

Binder: [dW][dR][dL][dR][dI][dE][dW] [wrlriew]
- IC50, Tau40 assay (ThT): 3.23 µM

Binder: [dW][dR][dL][dM][dI][dH][dW] [wrlmihw]
- IC50, Tau40 assay (ThT): 3.23 µM

Binder: [dW][dR][dT][dR][dI][dH][dW] [wrtrihw]
- IC50, Tau40 assay (ThT): 3.23 µM

Binder: [dW][dR][dL][dN][dV][dN][dW] [wrlnvnw]
- IC50, Tau40 assay (ThT): 3.23 µM

Binder: [dF][dR][dI][dR][dL][dR][dW] [frirlrw]
- IC50, Tau40 assay (ThT): 3.23 µM

Binder: [dW][dR][dL][dK][dV][dR][dW][dW] [wrlkvrww]
- IC50, Tau40 assay (ThT): 3.23 µM

Binder: [dW][dK][dV][dH][dI][dQ][dH][dW] [wkvhiqhw]
- IC50, Tau40 assay (ThT): 3.29 µM

Binder: [dF][dH][dL][dK][dI][dR][dH][dH] [fhlkirhh]
- IC50, Tau40 assay (ThT): 3.29 µM and 3.36 µM

Binder: [dL][dK][dI][dR][dI][dH][dY][dE] [lkirihye]
- IC50, Tau40 assay (ThT): 3.32 µM

Binder: [dL][dK][dI][dE][dI][dH][dY] [lkieihy]
- IC50, Tau40 assay (ThT): 3.32 µM

Binder: [dF][dR][dL][dW][dI][dH][dW] [frlwihw]
- IC50, Tau40 assay (ThT): 3.33 µM

Binder: [dW][dR][dA][dR][dI][dH][dW] [wrarihw]
- IC50, Tau40 assay (ThT): 3.33 µM

Binder: [dW][dR][dL][dR][dT][dH][dW] [wrlrthw]
- IC50, Tau40 assay (ThT): 3.33 µM

Binder: [dW][dN][dL][dN][dV][dR][dW] [wnlnvrw]
- IC50, Tau40 assay (ThT): 3.33 µM

Binder: [dL][dK][dI][dF][dI][dW][dY][dH] [lkifiwyh]
- IC50, Tau40 assay (ThT): 3.33 µM

Binder: [dE][dR][dL][dK][dV][dR][dW][dW] [erlkvrww]
- IC50, Tau40 assay (ThT): 3.36 µM

Binder: [dF][dK][dI][dE][dL][dH][dW][dH] [fkielhwh]
- IC50, Tau40 assay (ThT): 3.37 µM and 3.44 µM

Binder: [dR][dL][dK][dV][dR][dW] [rlkvrw]
- IC50, Tau40 assay (ThT): 3.38 µM and 3.59 µM and 3.81 µM and 4.79 µM

Binder: [dF][dK][dL][dE][dI][dR][dY][dH] [fkleiryh]
- IC50, Tau40 assay (ThT): 3.38 µM

Binder: [dF][dE][dI][dR][dL][dW][dH][dH] [feirlwhh]
- IC50, Tau40 assay (ThT): 3.38 µM

Binder: [dR][dL][dR][dL][dK][dW] [rlrlkw]
- IC50, Tau40 assay (ThT): 3.43 µM

Binder: [dL][dD][dL][dR][dF][dK][dL][dY] [ldlrfkly]
- IC50, Tau40 assay (ThT): 3.43 µM

Binder: [dW][dW][dL][dK][dL][dR][dW] [wwlklrw]
- IC50, Tau40 assay (ThT): 3.54 µM

Binder: [dW][dK][dV][dQ][dV][dR][dY][dW] [wkvqvryw]
- IC50, Tau40 assay (ThT): 3.54 µM

Binder: [dA][dK][dI][dR][dI][dH][dY][dH] [akirihyh]
- IC50, Tau40 assay (ThT): 3.54 µM

Binder: [dK][dW][dR][dW][dY][dR][dR] [kwrwyrr]
- IC50, Tau40 assay (ThT): 3.55 µM

Binder: [dW][dK][dL][dK][dL][dR][dW] [wklklrw]
- IC50, Tau40 assay (ThT): 3.56 µM and 7.39 µM

Binder: [dR][dI][dH][dY][dH][dI][dK][dL] [rihyhikl]
- IC50, Tau40 assay (ThT): 3.59 µM

Binder: [dW][dL][dK][dI][dV][dW] [wlkivw]
- IC50, Tau40 assay (ThT): 3.62 µM

Binder: [dL][dK][dI][dE][dI][dH][dY][dH] [lkieihyh]
- IC50, Tau40 assay (ThT): 3.64 µM

Binder: [dR][dW][dK][dV][dR][dW] [rwkvrw]
- IC50, Tau40 assay (ThT): 3.7 µM

Binder: [dR][dL][dR][dV][dR][dW] [rlrvrw]
- IC50, Tau40 assay (ThT): 3.71 µM and 4.76 µM

Binder: [dF][dH][dL][dH][dL][dK][dH][dW] [fhlhlkhw]
- IC50, Tau40 assay (ThT): 3.74 µM

Binder: [dW][dR][dL][dR][dI][dW][dW][dW] [wrlriwww]
- IC50, Tau40 assay (ThT): 3.76 µM and 5.41 µM

Binder: [dF][dR][dL][dR][dI][dH][dW][dF] [frlrihwf]
- IC50, Tau40 assay (ThT): 3.77 µM and 7.09 µM

Binder: [dK][dV][dR][dW][dW][dW][dR][dL] [kvrwwwrl]
- IC50, Tau40 assay (ThT): 3.84 µM

Binder: [dH][dK][dI][dR][dI][dH][dY][dH] [hkirihyh]
- IC50, Tau40 assay (ThT): 3.84 µM

Binder: [dF][dR][dI][dK][dL][dK][dW][dH] [friklkwh]
- IC50, Tau40 assay (ThT): 3.88 µM and 3.9 µM

Binder: [dL][dA][dI][dR][dI][dH][dY] [lairihy]
- IC50, Tau40 assay (ThT): 3.98 µM

Binder: [dH][dR][dF][dK][dV][dQ][dL][dY] [hrfkvqly]
- IC50, Tau40 assay (ThT): 4.03 µM

Binder: [dL][dE][dI][dR][dI][dH][dY][dH] [leirihyh]
- IC50, Tau40 assay (ThT): 4.07 µM

Binder: [dW][dW][dL][dR][dI][dH][dW][dW] [wwlrihww]
- IC50, Tau40 assay (ThT): 4.09 µM and 5.61 µM

Binder: [dW][dK][dL][dK][dL][dR][dW][dW] [wklklrww]
- IC50, Tau40 assay (ThT): 4.13 µM
